In the DeepSol protein solubility set:

Test: soluble on expression in E. coli; label from the status in PepcDB or PDB records

Soluble on expression in E. coli, soluble:
MGSSHHHHHHSSGLVPRGSHMLLREVTREERKNFYTNEWKVKDIPDFIVKTLELREFGFDHSGEGPSDRKNQYTDIRDLEDYIRATAPYAVYSSVALYEKPQEMEGWLGTELVFDIDAKDLPLRRCEHEPGTVCPICLNDAKEIVRDTVIILREELGFNDIHIIYSGRGYHIRVLDEWALKLDSKSRERILSFVSASEIEDVEEFRKLLLNKRGWFVLNHGYPRAFRLRFGYFILRIKLPHLINAGIRKSIAKSILKSKEEIYEEFVRKAILAAFPQGVGIESLAKLFALSTRFSKSYFDGRVTVDLKRILRLPSTLHSKVGLIAKYVGTNERDVMRFNPFKHAVPKFRKEEVKVEYKKFLESLGT, MGSSHHHHHHSSGLVPRGSHMSLDMKEHPDAEVQKNQVLTLEDWKEKWVTRHISFHQEQGHQLLKKHLDTFLKGQSGLRVFFPLCGKAIEMKWFADRGHTVVGVEISEIGIREFFAEQNLSYTEEPLAEIAGAKVFKSSSGSISLYCCSIFDLPRANIGKFDRIWDRGALVAINPGDHDRYADIILSLLRKEFQYLVAVLSYDPTKHAGPPFYVPSAELKRLFGTKCSMQCLEEVDALEERHKAWGLDYLFEKLYLLTEK, MGSSHHHHHHSSGLVPRGSKITVNPESKAVLAGQFVKLCCRATGHPFVQYQWFKMNKEIPNGNTSELIFNAVHVKDAGFYVCRVNNNFTFEFSQWSQLDVCDIPESFQRSVDGVSESKLQICVEPTSQKLMPGSTLVLQCVAVGSPIPHYQWFKNELPLTHETKKLYMVPYVDLEHQGTYWCHVYNDRDSQDSKKVEIIIDELNNLGHPDNKEQTTDQ, MGSSHHHHHHSSGLVPRGSSRRKSNCVKEVEKLQEKREKRRLQQQELREKRAQDVDATNPNYEIMCMIRDFRGSLDYRPLTTADPIDEHRICVCVRKRPLNKKETQMKDLDVITIPSKDVVMVHEPKQKVDLTRYLENQTFRFDYAFDDSAPNEMVYRFTARPLVETIFERGMATCFAYGQTGSGKTHTMGGDFSGKNQDCSKGIYALAARDVFLMLKKPNYKKLELQVYATFFEIYSGKVFDLLNRKTKLRVLEDGKQQVQVVGLQEREVKCVEDVLKLIDIGNSCRTSGQTSANAHSSRSHAVFQIILRRKGKLHGKFSLIDLAGNERGADTSSADRQTRLEGAEINKSLLALKECIRALGRNKPHTPFRASKLTQVLRDSFIGENSRTCMIATISPGMASCENTLNTLRYANRVKEL, MGSSHHHHHHSSGLVPRGSVGGCLAKDGLQQSKCPDTTPKRRRASSLSRDAERRAYQWCREYLGGAWRRVQPEELRVYPVSGGLSNLLFRCSLPDHLPSVGEEPREVLLRLYGAILQGVDSLVLESVMFAILAERSLGPQLYGVFPEGRLEQYIPSRPLKTQELREPVLSAAIATKMAQFHGMEMPFTKEPHWLFGTMERYLKQIQDLPPTGLPEMNLLEMYSLKDEMGNLRKLLESTPSPVVFCHNDIQEGNILLLSEPENADSLMLVDFEYSSYNYRGFDIGNHFCEWVYDYTHEEWPFYKARPTDYPTQEQQLHFIRHYLAEAKKGETLSQEEQRKLEEDLLVEVSRYALASHFFWGLWSILQASMSTIEFGYLDYAQSRFQFYFQQKGQLTSVHSSS, MGSSHHHHHHSSGRENLYFQGHMHANIRYSFGGDEHLFAEVAEAMSLEAFFRGMAITRAIEALQLPGVLDVCLANASFQVRFDPDRLAPQALLETVRGLEAEAVAARSIETRIVEVPVLYNDPWTHETLMRFRDRHQDPDSTDLEYAARINGYADVQAFIQAHSGTPWFVSMVGFVAGLPFMYQMVERERQLQVPKYLRPRIDTPKLTLGHGGCFGCIYSVRGAGGYQMFGVTPAPIFDPRQGLPYLEESMVFFRAGDIVQFRPIERTEYEHMAAEVESGTFDLRIRPVSFDLDAFLADPRGCTQHLQEVLHVD, MGSSHHHHHHSSGRENLYFQGHMKNLLDLSYEELVTEITNLGLERYRADQILDWVFDKKVNNFDEMTNLSKKHRALLKEHFSISFLKLLDKKVSRIDGTTKFLWELEDGNTIESVMLFHPDRITACISTQVGCPVKCIFCATGMSGFVRNLTTGEIVAQILSMEKEEKKKIGNVVYMGMGEPLLNYENTIKSIRILNHKKMGNIGIRRITISTVGIPDRIIQLAEEGLDVKLALSLHAPTNFKRDQLVPLNKKYSIEEILNAVKIYQRKTGNRVTIEYVLIRGINDEISDAKKLAEILRNMKVFVNLIPVNPTVEGLRRPSRERLLTFKRILLENGIEAEIRREKGTDIEAACGQLRLKRIKSRS
